Experimental data as given in the DeepSol protein solubility set.

Assay: soluble on expression in E. coli; label from the status in PepcDB or PDB records

Q: For “KVDKKTYKNLIVELQQRMREIQFALYERKIPLVLVFEGMDAAGKGGNIKRIREKLDPTGYEVNGISAPTDVELKHHYLWRFAKKMPKSGHIEIFDRSWYGRVLVERVEGFASQNEWQRASDEINQFEKMWTDEGTIILKFFLCLDKDEQLKRFKDRENNPDKQWKITEEDWRNREKWDEYLEASHDMIESTNTSYAPWYIVPADHKKTSRIEVLKTIIRKCEEVLWGVKTY”, which “soluble on expression in E. coli” value is on record?
A: not soluble

Q: For “MGSSHHHHHHSSGLVPRGSHMGSEGGPALFQSDMTFKIFIDGEVNGQKFTIVADGSSKFPHGDFNVHAVCETGKLPMSWKPICHLIQYGEPFFARYPDGISHFAQECFPEGLSIDRTVRFENDGTMTSHHTYELDDTCVVSRITVNCDGFQPDGPIMRDQLVDILPNETHMFPHGPNAVRQLAFIGFTTADGGLMMGHFDSKMTFNGSRAIEIPGPHFVTIITKQMRDTSDKRDHVCQREVAYAHSVPRITSAIGSDED”, which “soluble on expression in E. coli” value is on record?
A: soluble

Q: For “MGSDKIHHHHHHMGKIISKFVCHECGYETPKWLGKCPGCSAWNSLLEESISNKPLRRTAERVAAIPLNQLSAEDSPRFSSGLSEFDRVLGGGIVPGSLILLGGDPGIGKSTLLLQVAGLIAAAGKRILYLSGEESLQQIRLRASRLGINNDTIFLLNEQDIDLLHEYINDLDPDLIIIDSIQTVYSSKLSSIPGSVSQLRESTAAVMQIAKKMDKAVFLVGHVTKDGSLAGPKVLEHIVDVVVYFEGEKNFSFRLLRAAKNRFGATDEIALLEMSGQGLVEVPDPSYVFLSPGRDISSGTAIVASMEGSRPLLIEIQALVSSLGAGYPRRMVSGIDQNRLSLIIAVLEKRRGYTLSACDVYLKVSGGVFLKDPSVDLGIAAAVLSSYLEKPLAMDTVFIGEISLSGQIRPVSFLDLRLREIDRMGYKRVIVPTSPGRLAKSSHNMEILEVKSLDHFIDIVLEG”, which “soluble on expression in E. coli” value is on record?
A: not soluble

Q: Which “soluble on expression in E. coli” value does the source give for “MLKFFAALLFAVATMAQAQDNTLHTDLPLDYLAQANVETPDRPLVIFIHGYGSNAADLFGLKEHLPAGFNYLSVQAPVELQADSYKWFTQKKGGTDYDGVTEDLKSSGKRLTDFITQATEKFRTQPGKVFLVGFSQGAMMSYEVALRQPTLVGGFAALSGRLLPVVKSEVNASDDLKALKVFIGHGVQDRQVAYASGPQAEATLKSLGLTPQFHGYEGLGHSINEAEVVDLANWLQQSSR” here?
A: not soluble

Q: Which “soluble on expression in E. coli” value does the source give for “MKTQFIAGHARLPAGMAAKSLYDTLTITAEIDKKYGVIVEASCTLATEHGRDYVARLLRGHSLRDGIDGLLAELDEGYLGKAHSALCAALKDLYKQYCKMEEKEP” here?
A: not soluble

Q: With “MFKKFLSLCIVSTFSVAATSALAQPNQLVGKSSPQQLAPLMKAASGKGIKNQYIVVLKQPTTIMSNDLQAFQQFTQRSVNALANKHALEIKNVFDSALSGFSAELTAEQLQALRADPNVDYIEQNQIITVNPIISASANAAQDNVTWGIDRIDQRDLPLNRSYNYNYDGSGVTAYVIDTGIAFNHPEFGGRAKSGYDFIDNDNDASDCQGHGTHVAGTIGGAQYGVAKNVNLVGVRVLGCDGSGSTEAIARGIDWVAQNASGPSVANLSLGGGISQAMDQAVARLVQRGVTAVIAAGNDNKDACQVSPAREPSGITVGSTTNNDGRSNFSNWGNCVQIFAPGSDVTSASHKGGTTTMSGTSMASPHVAGVAALYLQENKNLSPNQIKTLLSDRSTKGKVSDTQGTPNKLLYSLTDNNTTPNPEPNPQPEPQPQPDSQLTNGKVVTGISGKQGELKKFYIDVPAGRRLSIETNGGTGNLDLYVRLGIEPEPFAWDCASYRNGNNEVCTFPNTREGRHFITLYGTTEFNNVSLVARY” as the sequence, how does the “soluble on expression in E. coli” value read?
A: not soluble

Q: With “MGHHHHHHSHMEKCSVGGLELTEQTPALLGNMAMATSLMDIGDSFGHPACPLVSRSRNSPVEDDDDDDDVVFIESIQPPSISAPAIADQRNFIFASSKNEKPQGNYSVIPPSSRDLASQKGNISETIVIDDEEDVETNGGAEKKSSFFIEWGLPGTKNKTNDLDFSTSSLSRSKTKTGVRPFNPGRMNVAGDLFQNGEFATHHSPEMHLQRRLMSFFQ” as the sequence, how does the “soluble on expression in E. coli” value read?
A: not soluble

Q: For “MEGQRWLPLEANPEVTNQFLKQLGLHPNWQFVDVYGMDPELLSMVPRPVCAVLLLFPITEKYEVFRTEEEEKIKSQGQDVTSSVYFMKQTISNACGTIGLIHAIANNKDKMHFESGSTLKKFLEESVSMSPEERARYLENYDAIRVTHETSAHEGQTEAPSIDEKVDLHFIALVHVDGHLYELDGRKPFPINHGETSDETLLEDAIEVCKKFMERDPDELRFNAIALSAA”, which “soluble on expression in E. coli” value is on record?
A: soluble

Q: For “MSGNIGANPAIIKLSWIEAAVDAHKTLNFEPSGRKRIGFDVADSGTDKCANVYRHGSVVFWADEWKAKEDELLKSCQRTYQAALEREADIVYDSIGVGASAGAKFSEINADRKSENAYARRVNYQRFNAGAGVHEPDDEYNGIPNKDFFANLKAQAWWLTVSEIRLTPLTTENSILWMS”, which “soluble on expression in E. coli” value is on record?
A: not soluble

Q: With “MGSDKIHHHHHHMTPAAVGQLVRTLEDWLGFPLFHRQTNGKNRLVATELAESVLPDIRAGFDKLTLALEKLKQDSLSGVLNIAVSPAFAEKWLLPRIDHFQKQYPDIDIRLDINLKTVDFLEQKVDVGVRYGQGQWQGLEAVKLMDEEVYPVCSPAFLNEHSFLLTPNDLKNITLIHDLSMEKHQQFPGWQSWLKSVGLNDINISRGMQINSSSAVLQAAMEGHGVALARSVMVQKDIQTGRLIRLFPQINFSSPFSYYLVYRPQYANLPKVKICLDWFFEEIHRI” as the sequence, how does the “soluble on expression in E. coli” value read?
A: not soluble

Q: For “MSLHQFQQDNQYFIFNFDRTFEQATEFFQAEFWQKQERVIGSAKGRGITYFLQTEDWFGVNCALRHYYRGGLWGKLNKDRYRFSALETTRSFAEFHLLQRLYEAGLPVPKPIAARIQKGKLGICYQADILTEKIENAQDLTALLQTQTLPKETWMQIGRLIRKLHDLQICHTDLNAHNILLQQTEQGQKCWLLDFDKCGEKSADFWKVQNLNRLKRSFEKEVGRMNIQFTEQNWADLTSAYHQEGHHHHHH”, which “soluble on expression in E. coli” value is on record?
A: soluble

Q: With “MDGSFVQHSVRVLQELNKQREKGQYCDATLDVGGLVFKAHWSVLACCSHFFQRIYGDGTGGSVVLPAGFAEIFGLLLDFFYTGHLALTSGNRDQVLLAAKELRVPEAVELCQSFQPQTSVGQAQSGLGQPASQDVKSHLKEPTDLDEEEVFKTLSLASVDQEPRDTEQPQLGTPAQSSTAFLCGKLTQALKPSPSEDKESEDCKEPPRPFEAGGAPLQGESNEWEVVVQVEDDRDGDYVSEPETVLTRRKSKVIRKPCAAEPALGAGSLTAEPTDSRKGAAVPVECPTCHKKFLSKYYLKVHNRKHTGEKPFECPKCGKCYFRKENLLEHEARNCMNRSEQVFTCSVCQETFRRRMELRLHMVSHTGEMPYKCSSCSQQFMQKKDLQSHMIKLHGAPKPHAVSASQGWGSGGSGTAQSCPHLDVLPLPVSPTCSAPLVPSASCLGRSYSCTRLLSIVEKSSLCVRNAGTGPRAATGCRCTSRPSTGMKGLMSVSSAAMPSPRRPTSTCTCARTPARSLSSATSVGRPSAPKFGQAQPHPHGREAFQL” as the sequence, how does the “soluble on expression in E. coli” value read?
A: soluble

Q: Which “soluble on expression in E. coli” value does the source give for “MGSDKIHHHHHHMLLTDLVTPPDTALCAAAEEMARMASDPFLYNHVSRSYIFGALAARATGTQYDPELFYIAAMLHDLGLTETYMAEDRFEVDAAEAAAKFLAAQNVEQSRIDRVWDAIALHTTFSIPQKKSPEAALVQIGAGLDVGVMPHDHITPEVMEQVLDAYPRLGFKKAMEQALIKVYAAKPMTAMHNFGADVAHRHVPDFHPPHFCDVLHGADFPE” here?
A: not soluble

Q: With “MTTSLHRLEALAHPARVRIVRLLAELPDEETAKDPRCGTAYGVCFCHLKEKTGLSAPTVSHHLRILREAGLVEGVRVGRWTYYRLRPGALEAVARELLGLAQRARALEERSA” as the sequence, how does the “soluble on expression in E. coli” value read?
A: soluble

Q: For “FTANIKGLTQASRNANDGISIAQTTEGALNEINNNLQRVRELAVQSANSTNSQSDLDSIQAEITQRLNEIDRVSGQTQFNGVKVLAQDNTLTIQVGANDGETIDIDLKQINSQTLGLDTLNVQQKYKVSDTAATVTGYADTTIALDNSTFKASATGLGGTDQKIDGDLKFDDTTGKYYAKVTVTGGTGKDGYYEVSVDKTNGEVTLAGGATSPLTGGLPATATEDVKNVQVANADLTEAKAALTAAGVTGTASVVKMSYTDNNGKTIDGGLAVKVGDDYYSATQNKDGSISINTTKYTADDGTSKTALNKLGGADGKTEVVSIGGKTYAASKAEGHNFKAQPDLAEAAATTTENPLQKIDAALAQVDTLRSDLAAVQNRFNSAITNLGNTVNNLTSAR”, which “soluble on expression in E. coli” value is on record?
A: soluble
